Laboratory results reported in patent US20160223529.

Protein	TVMV protease activity (degradation of fluorogenic TVMV substrate peptide) (Calmodulin)	HCV protease activity (quenched fluorescent HCV substrate) (SH3^pep-EGFP-PDZ^pep)
TVMV-AI-CalmodulinBinder (protein) SKALLKGVRDFNPISACVCLLENSSDGHSERLFGIGFGPYIIANQHLFRRNNGELTIKTMHGEFKVKNSTQLQMKPVEGRDIIVIKMAKDFPPFPQKLKFRQPTIKDRVCMVSTNFQQKSVSSLVSESSHIVHKEDTSFWQHWITTKDGQCGSPLVSIIDGNILGIHSLTHTTNGSNYFVEFPEKFVATYLDAADGWCKNWKFNADKISWGSFILWEDAPEDFMSGLVPRGVGREYVRFAPRWKKNFIAVSAANRFKKISSSGAL	releasing inhibition of the TVMV protease by the autoinhibitor peptide	–
TVMV-PDZ^dom with C-terminal HCV-inducible AI-domain (protein) SGGSGGSMEIRVRVEKDPELGFSISGGVGGRGNPFRPDDDGIFVTRVQPEGPASKLLQPGDKIIQANGYSFINIEHGQAVSLLKTFQNTVELIIVREVSSGGRGGSGGSGGSGGSGGSGGSSKALLKGVRDFNPISACVCLLENSSDGHSERLFGIGFGPYIIANQHLFRRNNGELTIKTMHGEFKVKNSTQLQMKPVEGRDIIVIKMAKDFPPFPQKLKFRQPTIKDRVCMVSTNFQQKSVSSLVSESSHIVHKEDTSFWQHWITTKDGQCGSPLVSIIDGNILGIHSLTHTTNGSNYFVEFPEKFVATYLDAADGWCKNWKFNADKISWGSFILWEDAPESGGDEMEECASHLGSGREYVRFAPGSTHHHHHH	–	resulting in reciprocal cleavage of the TVMV and HCV protease cleavage sites, thereby more fully activating both proteases
HCV-SH3^dom with C-terminal TVMV-inducible AI-domain (protein) SMSTSGSGGAEYVRALFDFNGNDEEDLPFKKGDILRIRDKPEEQWWNAEDSEGKRGMIPVPYVEKYRPASASVSALIGGRGGSGGSGGSGGSGGSGGSAKGSVVIVGRINLSGDTAYSQQTRGAAGIAATSATGRDKNQVDGEVQVLSTATQSFLATCVNGVCWTVYHGAGSKTLAGPKGPITQMYTNVDQDLVGWPAPPGARSMTPCTCGSSDLYLVTRHADVIPVRRRGDSRGSLLSPRPVSYLKGSSGGPLLCPSGHVVGIFRAAVCTRGVAKAVDFIPVESMETTMRGGGGSGGETVRFQSGGSGGDELILCPLDLGGSGGTGHHHHHH	–	resulting in reciprocal cleavage of the TVMV and HCV protease cleavage sites, thereby more fully activating both proteases
